Measured values reported in article PMC9082315 (2022).

B1: hcAb 1.26 (Nb 1.26 fused to the human IgG1 hinge and Fc) (Fc fusion)
chain: QVQLVESGGGLVQAGGSLRLSCAATGYTWSSVCMGWFRQAPGKEREGVAGIPSGRNRPYYADSVKGRFTISQDNAKNAVFLLMNSLKPEDTAIYYCAPCSAPHDPEYNYWGQGTQVTVSS
B2: hcAb 1.10 (Nb 1.10 fused to the human IgG1 hinge and Fc) (Fc fusion)
chain: QVQLVESGGGSVQAGGSLRLSCAASGYTYSTCRKGWYRQAPGKERELVASITADGATYYLDSVKGRLTISQDNAKNTVYLQMNSLKPEDTAVYYCAASVKDFTCTFNSWGQGTQVTVSS
B3: Nb 1.16, monomeric nanobody (VHH)
VHH: QVQLVESGGGSVQAGGSLRLSCAASGNTSKRKCVGWFRRAPGKEREGVTLIYTVGGSTVYADSVKGRFTISQDNAKDTVYLQMNSLKPEDSAMYYCAAESWGRQCNLETHRFTFWGQGTQVTVSS
B4: hcAb 1.16 (Nb 1.16 fused to the human IgG1 hinge and Fc) (Fc fusion)
chain: B3 VHH
B5: hcAb 2.15 (Nb 2.15 fused to the human IgG1 hinge and Fc) (Fc fusion)
chain: QVQLVESGGGSVQAGGSLKLSCAASGYASWARKCIGWFRQAPGQEREGVAAIFDFDGSTYYSDSVKGRFTISGDNAKNTVSLQMNSLLPKDTAVYYCTVAFGTCDNWYRGRGDYWGQGTQVTVSS
B6: Nb 2.15, monomeric nanobody (VHH)
VHH: B5 chain
B7: Nb 2.11, monomeric nanobody (VHH)
VHH: QVQLVESGGGSVQAGGSLRLSCAASGDASNRKCVSWFRRAPGKEREGVALIFPVGSSTAYADSVKGRFTISQDSAKDTVYLQMNNLKPEDSGTYYCAAVSWGGRCNLETQTVTFWGQGTQVTVSS
B8: hcAb 2.11 (Nb 2.11 fused to the human IgG1 hinge and Fc) (Fc fusion)
chain: B7 VHH
B9: hcAb 2.1 (Nb 2.1 fused to the human IgG1 hinge and Fc) (Fc fusion)
chain: QVQLVESGGGSVQAGGSLRLSCAAFGATISSAHMGWFRQAPGKEREGVAFRYTDGSSTYYTTSVRGRFTISQDNAKNTVYLQMNSLKPEDTAMYYCASNPSWGRLVGGQYNNWGQGTQITVSS
B10: Nb 2.1, monomeric nanobody (VHH)
VHH: B9 chain
B11: hcAb 1.29 (Nb 1.29 fused to the human IgG1 hinge and Fc) (Fc fusion)
chain: QVQLVESGGGSVQAGGSLRLSCAASGYTINTDAVAWFRQAPGKGDERVAVIYTGSGNTNYADSVKGRFTISQDNAKNTVYLQMNSLKPEDTALYYCASGYYGASGYDFNNWGQGTQVTVSS
B12: hcAb 2.20 (Nb 2.20 fused to the human IgG1 hinge and Fc) (Fc fusion)
chain: QVQLVESGGGSVQAGGSLRLSCAASGYTYNNYYMGWFRQAPGKEREGVAAINSDGLDTYVADSVKGRFTISRDNAKDTVHLQMNSLKPEDTAIYSCATGRTVYYSGYDFRLSVDDYWGQGTQVTVSS

Target: monomeric SARS-CoV-2 RBD (S residues 332-534) with Flag peptide and 8xHis-tag (SARS-CoV-2 (WA1 strain), UniProt P0DTC2 332-534)
Test: SPR

Binder	Kd [nM]
B1	0.08
B2	0.77
B3	3.59
B4	0.25
B5	0.08
B6	0.39
B7	2.17
B8	0.16
B9	0.36
B10	1.74
B11	0.63
B12	0.21
